Consider 1 molecule from PMC2686405 (The Journal of Cell Biology, 2009).

The assay concerns the target SNARE complex containing syntaxin-1A(2-253), synaptobrevin-2(29-93), SNAP-25(11-82) and SNAP-25(141-203) (rat | human, UniProt P32851;P63045;P60880). In words: SEC. For orientation: SEC sorts molecules by how far they enter the pores of the column.

Chain of SNARE complex containing syntaxin-1A(2-253), synaptobrevin-2(29-93), SNAP-25(11-82) and SNAP-25(141-203) (P32851 2-253, chain 1 of 4): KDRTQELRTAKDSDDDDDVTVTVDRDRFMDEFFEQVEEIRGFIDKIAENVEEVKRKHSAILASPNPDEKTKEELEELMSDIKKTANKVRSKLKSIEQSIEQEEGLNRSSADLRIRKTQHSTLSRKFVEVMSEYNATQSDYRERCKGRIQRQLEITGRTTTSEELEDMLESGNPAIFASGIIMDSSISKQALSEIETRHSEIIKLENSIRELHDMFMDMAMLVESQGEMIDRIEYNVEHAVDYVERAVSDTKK
Chain of SNARE complex containing syntaxin-1A(2-253), synaptobrevin-2(29-93), SNAP-25(11-82) and SNAP-25(141-203) (P63045 29-93, chain 2 of 4): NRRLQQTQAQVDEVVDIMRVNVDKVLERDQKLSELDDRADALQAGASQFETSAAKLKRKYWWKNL
Chain of SNARE complex containing syntaxin-1A(2-253), synaptobrevin-2(29-93), SNAP-25(11-82) and SNAP-25(141-203) (P60880 11-82, chain 3 of 4): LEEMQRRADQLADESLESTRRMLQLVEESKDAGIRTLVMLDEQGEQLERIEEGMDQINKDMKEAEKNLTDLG
Chain of SNARE complex containing syntaxin-1A(2-253), synaptobrevin-2(29-93), SNAP-25(11-82) and SNAP-25(141-203) (P60880 141-203, chain 4 of 4): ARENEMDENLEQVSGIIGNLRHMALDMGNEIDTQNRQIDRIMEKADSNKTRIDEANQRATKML

B1: complexin-1(26-83) (domain or fragment)
chain: KDPDAAKKEEERQEALRQAEEERKAKYAKMEAEREVMRQGIRDKYGIKKKEEREAEAQ
Turning to B1, the binding result is given as “binds”.
